Reference: paper PMC8257661

Target: JUNV L protein VNN(1177–1179)AAA (Junin virus (JUNV))
Experiment: MST

B1: Junin virus (JUNV) Z protein (natural protein)
chain: MGNCNGASKSNQPDSSRVTQPAAEFRRVAHSSLYGRYNCKCCWFADTNLITCNDHYLCLRCHQVMLRNSDLCNICWKPLPTTITVPVEPTAPPP
For B1, the Kd was 914 nM.
